Experimental data published in PMC12550018, “High-resolution native electrophoresis in-gel activity assay reveals biological insights of medium-chain fatty acyl-CoA dehydrogenase deficiency” (Scientific Reports, 2025).
Substitutions are numbered along the chain they refer to. Numbers in names are those of the source.

B1: Medium-chain specific acyl-CoA dehydrogenase (MCAD), human recombinant wild type (enzyme, UniProt P11310-1 26-421, looked up)
chain: KANRQREPGLGFSFEFTEQQKEFQATARKFAREEIIPVAAEYDKTGEYPVPLIRRAWELGLMNTHIPENCGGLGLGTFDACLISEELAYGCTGVQTAIEGNSLGQMPIIIAGNDQQKKKYLGRMTEEPLMCAYCVTEPGAGSDVAGIKTKAEKKGDEYIINGQKMWITNGGKANWYFLLARSDPDPKAPANKAFTGFIVEADTPGIQIGRKELNMGQRCSDTRGIVFEDVKVPKENVLIGDGAGFKVAMGAFDKTRPVVAAGAVGLAQRALDEATKYALERKTFGKLLVEHQAISFMLAEMAMKVELARMSYQRAAWEVDSGRRNTYYASIAKAFAGDIANQLATDAVQILGGNGFNTEYPVEKLMRDAKIYQIYEGTSQIQRLIVAREHIDKYKN
notes: Medium-chain specific acyl-CoA dehydrogenase (MCAD), human, encoded by ACADM; One FAD per monomer; also called MCAD WT; human recombinant MCAD; not shown: MBP, N-terminal, cleaved
B2: MCAD variant p.Y67H, human recombinant (enzyme, UniProt P11310-1 26-421, looked up)
chain: B1 chain with Y42H
notes: MCAD, human, encoded by ACADM, clinically relevant variant p.Y67H made by site-directed mutagenesis in pMALc2X; masses fit the mature protein (26-421); The residue number counts on the precursor; also called MCAD Y67H; not shown: MBP, N-terminal, cleaved
B3: MCAD variant p.R206C, human recombinant (enzyme, UniProt P11310-1 26-421, looked up)
chain: B1 chain with R181C
notes: MCAD, human, encoded by ACADM, clinically relevant variant p.R206C made by site-directed mutagenesis in pMALc2X; masses fit the mature protein (26-421); The residue number counts on the precursor; Native MS: only three FAD per tetramer; also called MCAD R206C; not shown: MBP, N-terminal, cleaved
B4: MCAD variant p.K329E, human recombinant (enzyme, UniProt P11310-1 26-421, looked up)
chain: B1 chain with K304E
notes: MCAD, human, encoded by ACADM, clinically relevant variant p.K329E made by site-directed mutagenesis in pMALc2X; masses fit the mature protein (26-421); The residue number counts on the precursor; also called MCAD K329E; not shown: MBP, N-terminal, cleaved
B5: Glutaryl-CoA dehydrogenase (GCDH), human recombinant wild type (enzyme, UniProt Q92947 45-438, looked up)
chain: RPEFDWQDPLVLEEQLTTDEILIRDTFRTYCQERLMPRILLANRNEVFHREIISEMGELGVLGPTIKGYGCAGVSSVAYGLLARELERVDSGYRSAMSVQSSLVMHPIYAYGSEEQRQKYLPQLAKGELLGCFGLTEPNSGSDPSSMETRAHYNSSNKSYTLNGTKTWITNSPMADLFVVWARCEDGCIRGFLLEKGMRGLSAPRIQGKFSLRASATGMIIMDGVEVPEENVLPGASSLGGPFGCLNNARYGIAWGVLGASEFCLHTARQYALDRMQFGVPLARNQLIQKKLADMLTEITLGLHACLQLGRLKDQDKAAPEMVSLLKRNNCGKALDIARQARDMLGGNGISDEYHVIRHAMNLEAVNTYEGTHDIHALILGRAITGIQAFTASK
notes: Glutaryl-CoA dehydrogenase, human, wild type; source: purified by a procedure similar to that for MCAD (E. coli, MBPTrap, TEV digestion, SEC)

Legend:
[1] = target: the molecule itself; experiment: SEC; Superdex 200 5/150 GL, 2 mg/ml protein, 0.1 ml PBS/min, 5 °C, absorbance at 280 nm; mass by calibration with protein standards
[2] = target: the molecule itself; experiment: native gel or EMSA; high-resolution clear native PAGE (hrCN-PAGE) of purified recombinant protein, 4-16% or 4-20% gradient gels, pH 7.0, cathode buffer with 0.05% sodium deoxycholate and 0.01% n-dodecyl-beta-D-maltoside; Coomassie, FAD fluorescence and acyl-CoA:NBT in-gel activity staining

Protein	stoichiometry N [1]	binding result [2]
B1	4	
B2	4	
B3	4	
B4	4	
B5		binds
